Here are results for one molecule from patent US20210238305A1 (REMEGEN, published 2021).

This assay addresses T1, human epidermal growth factor receptor 2 (Her2) (human, UniProt P04626 23-1255).
T1 construct: whole, on cells; Endogenous Her2 in fixed patient tissue; also called ErbB2
The assay is described as follows: IHC grade, no antigen retrieval, breast carcinoma sample 5 (18-07814-1).

B1: RC48M antibody (antibody, mouse IgG1, kappa, V domains shown)
VH: EVQLVQSGAEVKKPGATVKISCKVSGYTFTDYYIHWVQQAPGKGLEWMGRVNPDHGDSYYNQKFKDKATITADKSTDTAYMELSSLRSEDTAVYFCARNYLFDHWGQGTLVTVSS
VL: DIQMTQSPSSVSASVGDRVTITCKASQDVGTAVAWYQQKPGKAPKLLIYWASIRHTGVPSRFSGSGSGTDFTLTISSLQPEDFATYYCHQFATYTFGGGTKVEIKR
notes: also called R48M
As for B1, the binding result was “binds”.
